Measurements published in PMC3902948.

B1: Prp43 (Saccharomyces cerevisiae S288C) (protein)
chain: MGSKRRFSSEHPDPVETSIPEQAAEIAEELSKQHPLPSEEPLVHHDAGEFKGLQRHHTSAEEAQKLEDGKINPFTGREFTPKYVDILKIRRELPVHAQRDEFLKLYQNNQIMVFVGETGSGKTTQIPQFVLFDEMPHLENTQVACTQPRRVAAMSVAQRVAEEMDVKLGEEVGYSIRFENKTSNKTILKYMTDGMLLREAMEDHDLSRYSCIILDEAHERTLATDILMGLLKQVVKRRPDLKIIIMSATLDAEKFQRYFNDAPLLAVPGRTYPVELYYTPEFQRDYLDSAIRTVLQIHATEEAGDILLFLTGEDEIEDAVRKISLEGDQLVREEGCGPLSVYPLYGSLPPHQQQRIFEPAPESHNGRPGRKVVISTNIAETSLTIDGIVYVVDPGFSKQKVYNPRIRVESLLVSPISKASAQQRAGRAGRTRPGKCFRLYTEEAFQKELIEQSYPEILRSNLSSTVLELKKLGIDDLVHFDFMDPPAPETMMRALEELNYLACLDDEGNLTPLGRLASQFPLDPMLAVMLIGSFEFQCSQEILTIVAMLSVPNVFIRPTKDKKRADDAKNIFAHPDGDHITLLNVYHAFKSDEAYEYGIHKWCRDHYLNYRSLSAADNIRSQLERLMNRYNLELNTTDYESPKYFDNIRKALASGFFMQVAKKRSGAKGYITVKDNQDVLIHPSTVLGHDAEWVIYNEFVLTSKNYIRTVTSVRPEWLIEIAPAYYDLSNFQKGDVKLSLERIKEKVDRLNELKQGKNKKKSKHSKK
B2: Prp43/Ntr1(51–110) (Saccharomyces cerevisiae S288C) (protein)
chain: MGSKRRFSSEHPDPVETSIPEQAAEIAEELSKQHPLPSEEPLVHHDAGEFKGLQRHHTSAEEAQKLEDGKINPFTGREFTPKYVDILKIRRELPVHAQRDEFLKLYQNNQIMVFVGETGSGKTTQIPQFVLFDEMPHLENTQVACTQPRRVAAMSVAQRVAEEMDVKLGEEVGYSIRFENKTSNKTILKYMTDGMLLREAMEDHDLSRYSCIILDEAHERTLATDILMGLLKQVVKRRPDLKIIIMSATLDAEKFQRYFNDAPLLAVPGRTYPVELYYTPEFQRDYLDSAIRTVLQIHATEEAGDILLFLTGEDEIEDAVRKISLEGDQLVREEGCGPLSVYPLYGSLPPHQQQRIFEPAPESHNGRPGRKVVISTNIAETSLTIDGIVYVVDPGFSKQKVYNPRIRVESLLVSPISKASAQQRAGRAGRTRPGKCFRLYTEEAFQKELIEQSYPEILRSNLSSTVLELKKLGIDDLVHFDFMDPPAPETMMRALEELNYLACLDDEGNLTPLGRLASQFPLDPMLAVMLIGSFEFQCSQEILTIVAMLSVPNVFIRPTKDKKRADDAKNIFAHPDGDHITLLNVYHAFKSDEAYEYGIHKWCRDHYLNYRSLSAADNIRSQLERLMNRYNLELNTTDYESPKYFDNIRKALASGFFMQVAKKRSGAKGYITVKDNQDVLIHPSTVLGHDAEWVIYNEFVLTSKNYIRTVTSVRPEWLIEIAPAYYDLSNFQKGDVKLSLERIKEKVDRLNELKQGKNKKKSKHSKK
B3: Prp43/Ntr1(1–120) (Saccharomyces cerevisiae S288C) (protein)
chain: MGSKRRFSSEHPDPVETSIPEQAAEIAEELSKQHPLPSEEPLVHHDAGEFKGLQRHHTSAEEAQKLEDGKINPFTGREFTPKYVDILKIRRELPVHAQRDEFLKLYQNNQIMVFVGETGSGKTTQIPQFVLFDEMPHLENTQVACTQPRRVAAMSVAQRVAEEMDVKLGEEVGYSIRFENKTSNKTILKYMTDGMLLREAMEDHDLSRYSCIILDEAHERTLATDILMGLLKQVVKRRPDLKIIIMSATLDAEKFQRYFNDAPLLAVPGRTYPVELYYTPEFQRDYLDSAIRTVLQIHATEEAGDILLFLTGEDEIEDAVRKISLEGDQLVREEGCGPLSVYPLYGSLPPHQQQRIFEPAPESHNGRPGRKVVISTNIAETSLTIDGIVYVVDPGFSKQKVYNPRIRVESLLVSPISKASAQQRAGRAGRTRPGKCFRLYTEEAFQKELIEQSYPEILRSNLSSTVLELKKLGIDDLVHFDFMDPPAPETMMRALEELNYLACLDDEGNLTPLGRLASQFPLDPMLAVMLIGSFEFQCSQEILTIVAMLSVPNVFIRPTKDKKRADDAKNIFAHPDGDHITLLNVYHAFKSDEAYEYGIHKWCRDHYLNYRSLSAADNIRSQLERLMNRYNLELNTTDYESPKYFDNIRKALASGFFMQVAKKRSGAKGYITVKDNQDVLIHPSTVLGHDAEWVIYNEFVLTSKNYIRTVTSVRPEWLIEIAPAYYDLSNFQKGDVKLSLERIKEKVDRLNELKQGKNKKKSKHSKK

Each protein was assayed on Nc1ncnc2c1ncn2[C@@H]1O[C@H](COP(=O)(O)OP(=O)(O)OP(=O)(O)O)[C@@H](O)[C@H]1O (assay: purified protein). Details: no RNA, 100 mM NaCl, 10 mM Tris pH 7.5, 2 mM MgCl2.
Protein B1 has a Km of 11.07 ± 2.07 µM and a Vmax of 2.43 µM/min.
B2 was tested, and the Km was 13.42 ± 1.93 µM and the Vmax was 9.54 µM/min.
Work on B3 yielded a Km of 16.37 ± 1.81 µM and a Vmax of 11.2 µM/min.
